Data from US20150267232A1, “IN VIVO AND IN VITRO CARBENE INSERTION AND NITRENE TRANSFER REACTIONS CATALYZED BY HEME ENZYMES” (California Institute of Technology, priority 2012, published 2015).

Test: Small-scale anaerobic C—H amination with purified enzymes, azide 1
Assay type: biochemical
Conditions: benzosultam 3
Method: Activities are presented in TTN. […] Yields and enantioselectivies determined by HPLC analysis. * (S−R)/(S+R). nd=not determined.
Enzymes used as purified catalysts were expressed as previously described (Lewis, J. C. et al., Proc. Natl. Acad. Sci. U.S.A. 106, 16550-16555 (2009)), and were purified by anion-exchange chromatography (for holoenzymes) or Ni-NTA chromatography (for isolated heme domains). Concentrations of P450 or P411 enzymes were determined as previously reported (Omura, T. & Sato, R., J. Biol. Chem. 239, 2370-2378 (1964); Vatsis, K. P. et al., J. Inorg. Biochem. 91, 542-553 (2002)). Small-scale reactions (400 μL) were conducted in 2 mL crimp vials containing degassed buffer (0.1 M potassium phosphate pH 8.0), enzyme (0.1-0.5% catalyst loading) and oxygen depletion system (10× stock solution containing 14,000 U/mL catalase, 1,000 U/mL glucose oxidase dissolved in 0.1 M KPi pH 8.0). Enzyme (P450 or P411) solution and oxygen depletion mixture were added to the vial with a small stir bar before crimp-sealing. […] Reactions were stirred at room temperature for 24 h under positive argon pressure.
Small-scale reactions (400 μL) were conducted in 2 mL crimp vials (Agilent Technologies, San Diego, Calif.) containing buffer (0.1 M potassium phosphate pH 8.0), enzyme (0.1-0.5% catalyst loading) and oxygen depletion system (10× stock solution containing 14,000 U/mL catalase, 1,000 U/mL glucose oxidase dissolved in 0.1 M KPi pH 8.0). Enzyme (P450 or P411) solution and oxygen depletion mixture were added to the vial with a small stir bar before crimp-sealing. […] In the meantime, the headspace of the sealed 2 mL reaction vial with the P450 solution was made anaerobic by flushing argon over the protein solution (with no bubbling). The buffer/reductant/glucose solution (270 μL) was syringed into the reaction vial with continuous argon purge of the vial headspace. An arylsulfonyl azide solution in DMSO (10 μL, 80 mM) was added to the reaction vial via a glass syringe, and the reaction was left stirring for 24 h at room temperature under positive argon pressure. […] Reactions were quenched by adding 30 μL 3 M HCl under argon. To the vials were then added acetonitrile (430 uL) and internal standard (o-toluenesulfonamide 10 mM in 50% acetonitrile 50% water, 1 mM final concentration). This mixture was then transferred to a microcentrifuge tube, and centrifuged at 17,000×g for 10 minutes. A portion (20 μL) of the supernatant was then analyzed by HPLC. For LC-MS analysis, the quenched reaction mixture was extracted twice with ethyl acetate (2×350 μL), dried under a light argon stream and resuspended in 50% water-acetonitrile (100 μL). For chiral HPLC the reactions were extracted as above with ethyl acetate, dried and resuspended in DMSO (100 μL) and then C18 purified as described above. The C18 purified material was dried, and resuspended in acetonitrile, and then injected onto the chiral HPLC system for analysis. Sultam formation was quantified comparison of integrated peak areas of internal standard and sultam at 220 nm to a calibration curve made using synthetically produced sultam and internal standard.
Purified enzymes were screened for activity in small scale reactions (400 μL) under anaerobic conditions as described above. Reactions were carried out using 0.5% mol of enzyme (10 μM) with respect to the triethylsulfonyl azide substrate 1 (2 mM). Standard reaction conditions described above were employed. Diethyl benzosultam product 3 (FIG. 18) was analyzed and quantified by reversed-phase HPLC (see above).
Small-scale reactions (400 μL total volume) were set up and worked up. Control reactions were performed with both the holoenzyme (BM3 with covalently linked reductase domain) and the isolated heme domain. […] Reactions of the complete system with heme domain (CS heme) included 2 mM Na2S2O4 rather than NADPH unless otherwise indicated in the table. […]

B1: ABC-CIS-A268T: BM3-CIS + C400S + A268T (9-10A TS + F87V, C400S) (protein, listed as Bacillus megaterium)
chain: TIKEMPQPKTFGELKNLPLLNTDKPVQALMKIADELGEIFKFEAPGRVTRYLSSQRLIKEACDESRFDKNLSQALKFARDFAGDGLVTSWTHEKNWKKAHNILLPSFSQQAMKGYHAMMVDIAVQLVQKWERLNADEHIEVSEDMTRLTLDTIGLCGFNYRFNSFYRDQPHPFIISMVRALDEVMNKLQRANPDDPAYDENKRQFQEDIKVMNDLVDKIIADRKARGEQSDDLLTQMLNGKDPETGEPLDDGNIRYQIITFLIAGHETTSGLLSFALYFLVKNPHVLQKVAEEAARVLVDPVPSYKQVKQLKYVGMVLNEALRLWPTAPAFSLYAKEDTVLGGEYPLEKGDEVMVLIPQLHRDKTVWGDDVEEFRPERFENPSAIPQHAFKPFGNGQRASIGQQFALHEATLVLGMMLKHFDFEDHTNYELDIKETLTLKPKGFVVKAKSKKIPLGGIPSPSTEQSAKKVRKKAENAHNTPLLVLYGSNMGTAEGTARDLADIAMSKGFAPQVATLDSHAGNLPREGAVLIVTASYNGHPPDNAKQFVDWLDQASADEVKGVRYSVFGCGDKNWATTYQKVPAFIDETLAAKGAENIADRGEADASDDFEGTYEEWREHMWSDVAAYFNLDIENSEDNKSTLSLQFVDSAADMPLAKMHGAFSTNVVASKELQQPGSARSTRHLEIELPKEASYQEGDHLGVIPRNYEGIVNRVTARFGLDASQQIRLEAEEEKLAHLPLAKTVSVEELLQYVELQDPVTRTQLRAMAAKTVCPPHKVELEALLEKQAYKEQVLAKRLTMLELLEKYPACEMKFSEFIALLPSIRPRYYSISSSPRVDEKQASITVSVVSGEAWSGYGEYKGIASNYLAELQEGDTITCFISTPQSEFTLPKDPETPLIMVGPGTGVAPFRGFVQARKQLKEQGQSLGEAHLYFGCRSPHEDYLYQEELENAQSEGIITLHTAFSRMPNQPKTYVQHVMEQDGKKLIELLDQGAHFYICGDGSQMAPAVEATLMKSYADVHQVSEADARLWLQQLEEKGRYAKDVWAG
modifications: cytochrome P450NADPH-P-450 reductase precursor, cytochrome P450 (BM3), CYP102A1
Question: With B1 as the molecule, how does the TTN (0.1 mol % catalyst loading (2 μM), 2 mM azide 1, 2 mM NADPH) read?
Answer: 82

Question: And the “% ee” value (0.1 mol % catalyst loading, (S−R)/(S+R))?
Answer: 47%
